# IntAct's records for PubMed 24528925
# B1: Ubiquitin-conjugating enzyme E2 Z (Homo sapiens), Q9H832 (parent)
# chain: MAESPTEEAATAGAGAAGPGASSVAGVVGVSGSGGGFGPPFLPDVWAAAAAAGGAGGPGSGLAPLPGLPPSAAAHGAALLSHWDPTLSSDWDGERTAPQCLLRIKRDIMSIYKEPPPGMFVVPDTVDMTKIHALITGPFDTPYEGGFFLFVFRCPPDYPIHPPRVKLMTTGNNTVRFNPNFYRNGKVCLSILGTWTGPAWSPAQSISSVLISIQSLMTENPYHNEPGFEQERHPGDSKNYNECIRHETIRVAVCDMMEGKCPCPEPLRGVMEKSFLEYYDFYEVACKDRLHLQGQTMQDPFGEKRGHFDYQSLLMRLGLIRQKVLERLHNENAEMDSDSSSSGTETDLHGSLRV
# Variants of: B1
# Conditions: with ubd_human UBD
row,effect of a mutation on the interaction,Variant
1,decreasing interaction,MAESPTEEAATAGAGAAGPGASSVAGVVGVSGSGGGFGPPFLPDVWAAAAAAGGAGGPGSGLAPLPGLPPSAAAHGAALLSHWDPTLSSDWDGERTAPQCLLRIKRDIMSIYKEPPPGMFVVPDTVDMTKIHALITGPFDTPYEGGFFLFVFRCPPDYPIHPPRVKLMTTGNNTVRFNPNFYRNGKVCLSILGTWTGPAWSPAQSISSVLISIQSLMTENPYHNEPGFEQERHPGDSKNYNECIRHETIRVAVCDMMEGKCPCPEPLRGVMEKSFLEYYDFYEVACKDRLHLQGQTMQDPFGEKRGHFDYQSLLMRLGLIRQRVLERLHNENAEMDSDSSSSGTETDLHGSLRV [K323R]
